Assay results taken from the supplement of paper PMC9170038.

Assays:
MS2 coat protein [1] = experiment: apparent KD of MS2 coat protein; designed switch direction (-1 OFF switch, 1 ON switch): 1; higher = weaker reporter binding
In short: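 On Illumina chips, designed RNA switches with common flanks were made by stalled E. coli RNA polymerase. Titrations with SNAP-549-labelled MS2 coat protein, doubling from 0.7 or 1.5 nM to 3 µM, were done with no input, with 200 uM small-molecule ligand, or with an oligonucleotide input. Apparent KD is the median per design over clusters, from curve fits of normalised cluster fluorescence.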

MS2 coat protein [2] = experiment: apparent KD of MS2 coat protein; higher = weaker reporter binding; settings: Eterna round: R107
In short: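 Normalised binding curves from single clusters were fitted, and the median fit for each design is given as apparent KD. The clusters held designed RNA switches transcribed on-chip from Illumina sequencing clusters. These were titrated with SNAP-549-labelled MS2 coat protein (twofold steps from 0.7 or 1.5 nM to 3 µM, 0.8–1.5 h to 10–20 min per step) in 100 mM Tris-HCl pH 7.5, 80 mM KCl, 4 mM MgCl2, without or with constant ligand.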

[3] = input ligand: microRNA oligo, concentration not stated
[4] = input ligand: theophylline 20 uM
[5] = input ligand: theophylline 2 mM
[6] = input ligand: tryptophan 2.4 mM

Sequence | apparent KD of MS2 coat protein (MS2 coat protein [1]; input ligand: FMN 200 uM) | apparent KD of MS2 coat protein (MS2 coat protein [1]; [3]) | apparent KD of MS2 coat protein (MS2 coat protein [1]; input ligand: none) | apparent KD of MS2 coat protein (MS2 coat protein [2]; input ligand: arginine 13.2 mM) | apparent KD of MS2 coat protein (MS2 coat protein [2]; [4]) | apparent KD of MS2 coat protein (MS2 coat protein [2]; [5]) | apparent KD of MS2 coat protein (MS2 coat protein [2]; input ligand: none) | apparent KD of MS2 coat protein (MS2 coat protein [2]; [6])
AAAAAACAUGAGGAUCACCCAUGUCGAAAGACAUGAGGAUAUGUGUGGAAACCAUACUAUACAGAAGGCAUAAAAA [SS1 - 1009] (Eterna round: R96, puzzle: Same State 1) | 60.6 nM | 137 nM | 96.8 nM | – | – | – | – | –
AAAAGAAACAUGUACCUGAGUACAUGAAAACAUGAGGAUCACCCAUGUAACAAGUUGGGUGUUUGUCUUAUAAGAAA [JL pocket 5] (Eterna round: R96, puzzle: Sensor for hsa-mir-208a) | 68.7 nM | 238 nM | 231 nM | – | – | – | – | –
UGGAGAUAGACGGCCGCCACUAACAUGAGGAUCACCCAUGUCGUCACGAAUGGAUGGCCCUAGAAUAGGACCGGGUCCGGAUUCA [theeternabot_exclusion_MS2_Trp_B_48] | – | – | – | 23.7 nM | 42.5 nM | 50.6 nM | – | –
UGGCAAGAGGGAAGGAGCGUCAGCAGAGUAACAUGAGGAUCACCCAUGUAGCACGUGGUGUGACAGGUAGGUCGCCCUCUGCCGU [SS-ArgB13] | – | – | – | 28.5 nM | 77.1 nM | 46 nM | 32.4 nM | 28.3 nM
UGGCAGUACAUGGGUUACUGCCAAGGUGAUACCAGCAUCGAAAGAUGCCCUUGGCAGCACCAACAUGAGGAUCACCCAUGUAAUA [(MT)''-(M)'-(T')-(Theo)-(Ms2)_Design1/22_8] | – | – | – | 68.5 nM | 210 nM | 53.9 nM | 234 nM | 247 nM
UGGGUACAUGAGGAUCACCCAUGUACUGAAGGAGCGAGAAAUAUCUCAGGUAGGUCGCAGACAUGAGGAUCACCCAUGUAGUAGG [Exclusion Arginine A GF 11] | – | – | – | 29.5 nM | 31.8 nM | 33.1 nM | 28.1 nM | 26.7 nM
UGGGUACAUGAGGAUCACCCAUGUACUGAAGGAGCGAGAAUUAUCUCAGGUAGGUCGCAGACAUGAGGAUCACCCAUGUAGUGGG [Exclusion Arginine A GF 13] | – | – | – | 15 nM | 22.7 nM | 20 nM | 18 nM | 17.7 nM
UGGGUAGAAUAGAUAGAUAGAUAAACUGAAGGAGCGAGAAUAAACUCAGGUAGGUCGCAGACAUGAGGAUCACCCAUGUAGAUGG [Same State Arginine A GF15] | – | – | – | 91.1 nM | 87.2 nM | 163 nM | 98.8 nM | 88.9 nM
UGGUAGCCACACUUCAAACAUCGACAAGAUACCAGUUAAUCAACGAACCCUUGGCAGCUUCGUACAUGAGGAUCACCCAUGUGGA [theeternabot_exclusion_MS2_Theo_A_6] | – | – | – | 18.2 nM | 24.2 nM | – | – | 19.5 nM
UGUAACAUGAGGAUCACCCAUGUGAGUGAUACCAGACUAGUAUUAGUCCCUUGGCAGCACGUUGGGCGAGUGUAUAGUCUAUGCG [Same State - Theophylline A (Freestyle 14)] | – | – | – | 89.6 nM | 113 nM | – | – | 80.3 nM
UGUACAUGAGGAUCACCCAUGUUACAUGAUACCAGACAUGAGAGUGUCCCUUGGCAGCAUGGAGCUGAUACGGCGGGAAGCCGGA [#09 SameState-TheophyllineA] | – | – | – | 26.1 nM | 40.4 nM | – | – | 27 nM
UGUACCAUGUCGGCCGCCACUCAUGAUAAACAUGAGGAUCACCCAUGUAGCGUCAAAGACGCUAUGAGGACCGGGACAUGGUACU [TryBS Zipper 2 #StaticStem #Zipper] | – | – | – | 32.5 nM | 49.2 nM | 45 nM | – | –
UGUAUGGACUGAAGGAGCGGAAGAUACCAUGAGGAUCACCCAUGGAAUAAGGCGAAAGCCUUCCAGGUAGGUCGCAGUCCAUACU | – | – | – | 16.1 nM | 23.9 nM | 23.9 nM | 18.3 nM | 19.8 nM
UGUAUGGACUGAAGGAGCGGGAAAUAAACUUGAGGAUCACCCAGGUAAUAGGCGAAAGCCACCCAGGUAGGUCGCAGUCCAUACU | – | – | – | 22 nM | 38.5 nM | 45.7 nM | 24.3 nM | 28.5 nM
UGUAUGUGAUCUGAUACCAGUCCAACUGGUAAAGCGUGAGGAUCACCCAUGCAAAAUUGGGACCCUUGGCAGCAGAUCGCAUACU | – | – | – | 48.6 nM | 290 nM | 208 nM | 337 nM | 185 nM
UGUAUGUGAUUUGAUACCAGACCAGCUGGUGGUACACGAGGAUCACCCGUGUAGGUUUGGGUCCCUUGGCAGCAAAUCGCAUACU [SS Theo B #24 Ms3] | – | – | – | 53.7 nM | 68.7 nM | 18.1 nM | 56.8 nM | 54.5 nM
UGUUAUGUGGGAAGGAGCGCAUACUUCACAUGAGGAUCACCCAUGUCAAGACGUGAGUCAGUGCAGGUAGGUCGCCUAGUUAAGA [Same State - Arginine B (Freestyle 17)] | – | – | – | 36 nM | 75.1 nM | 78.8 nM | 73.9 nM | 45 nM
UGUUUGGUGCGCGAGUGUUGGAUAAUUGAUACCAGUGUAGAAGAGCGCCCUUGGCAGCGAAUCCUAACAUGAGGAUCACCCAUGU [5.W] | – | – | – | 37.6 nM | 54.7 nM | – | – | 40.3 nM

Sequence | apparent KD of MS2 coat protein (MS2 coat protein [1]; input ligand: FMN 200 uM) | apparent KD of MS2 coat protein (MS2 coat protein [1]; [3]) | apparent KD of MS2 coat protein (MS2 coat protein [1]; input ligand: none) | apparent KD of MS2 coat protein (MS2 coat protein [2]; input ligand: arginine 13.2 mM) | apparent KD of MS2 coat protein (MS2 coat protein [2]; [4]) | apparent KD of MS2 coat protein (MS2 coat protein [2]; [5]) | apparent KD of MS2 coat protein (MS2 coat protein [2]; input ligand: none) | apparent KD of MS2 coat protein (MS2 coat protein [2]; [6])
UGUUUGGUGCGCGAGUGUUGGAUAAUUGAUACCAGUGUAGAAGUGCGCCCUUGGCAGCGAAUCCUAACAUGAGGAUCACCCAUGU [5.X] | – | – | – | 49.1 nM | 52.3 nM | – | – | 39 nM
UUAACGAGCUGAAGGAGCGCUCCUCAACAACAUGAGGAUCACCCAUGUACACAUAAUAGGGAGCAGGUAGGUCGCAGCAGGAUGG [ss-argB-?] | – | – | – | 17.4 nM | 23.4 nM | 17 nM | 15.3 nM | 15 nM
UUAAUCAUUGAUGAAAACAUUAAUGCAGAAGGAGCGUGAUAAAACACAGGUAGGUCGCUGAAGGGAACAUGAGGAUCACCCAUGU [AstrosSSArgA#16] | – | – | – | 27.3 nM | 36.5 nM | 33.6 nM | 28.1 nM | 30.8 nM
UUAAUCUUAGAAGAAAACUUUUAAGCAGAAGGAGCGUGAUAAAACACAGGUAGGUCGCUGAAGGGAACAUGAGGAUCACCCAUGU [AstrosSSArgA#18] | – | – | – | 29.3 nM | 28.9 nM | 29.4 nM | 22 nM | 23.1 nM
UUACAUGAGGAUCACCCAUGUCAUAAUGAUACCAGAUAGUUGAUGAUCCCUUGGCAGCAUAGUACCUAGACAUGUGAGUCAUAGG [Ab] | – | – | – | 116 nM | 130 nM | – | – | 76.8 nM
UUAGAUAUGACAGAUACCAGCGUGUUGUUGAACAUGAGGAUCACCCAUGUAGUGAUCGAGCGCCCUUGGCAGCUGGUGUGUUUGG [7.Q] | – | – | – | 77.6 nM | 174 nM | – | – | 225 nM
UUAUCUAUAUUCGAUACCAGUACCCUGGCCGCAAAUCCUAACAUGAGGAUCACCCAUGUGUACCCUUGGCAGCGGGUAUGGGUUU [XTheo B #29] | – | – | – | 21.5 nM | 35.1 nM | – | – | 24.2 nM
UUAUUUAACGGAAGGAGCGCGGAAAUUAAGGUGGGUAAACAUGAGGAUCACCCAUGUAAUCCGCAGGUAGGUCGCCGAUAUUUAU [#24 Exclusion - Arginine B] | – | – | – | 86.1 nM | 136 nM | 119 nM | 156 nM | 112 nM
UUCGUUUACGGAAGGAGCGACGGACAUCGGUGAUCUAUGCACAUGAGGAUCACCCAUGUACGUCAGGUAGGUCGCCGUUAAGAGU [XArg-B28] | – | – | – | 28.4 nM | 96.5 nM | 184 nM | 80.8 nM | 9.59 nM
UUGAUUACCCAAGCGUGAUGGUCCUAGGAACGAGGACCGGUACGGCCGCCACUCGCAAGCAAACAUGAGGAUCACCCAUGUUUAU [theeternabot_exclusion_MS2_Trp_A_19] | – | – | – | 11.2 nM | 15.9 nM | 14.1 nM | – | –
UUGGCACGGACGGCCGCCACUCUUUCACAUGAGGAUCACCCAUGUUAUCUAGUCCUCAGCAGAAAGAGGACCGGGUCGGAGUUGG [theeternabot_exclusion_MS2_Trp_B_13] | – | – | – | 75.1 nM | 168 nM | 214 nM | – | –
UUGGGUAUGCGAAGGAGCGGGAAAUAUAUAUAUAUAAUCCUAACAUGAGGAUCACCCAUGUCCCAGGUAGGUCGCGCAUAUUUGG [12.J] | – | – | – | 40.6 nM | 88.9 nM | 106 nM | 62.9 nM | 67.8 nM
UUGGUUAUGCGAAGGAGCGGGAAAUAUAUAUAUAUAAUCCUAACAUGAGGAUCACCCAUGUCCCAGGUAGGUCGCGCAUAGUUGG [12.I] | – | – | – | 45.2 nM | 80.3 nM | 83.3 nM | 69.5 nM | 69.1 nM
UUUACAUGAGGAUCACCCAUGUGCCAUGAUACCAGACAUGAAAAUGUCCCUUGGCAGCAUGAAUGAUUCAUAGGAUAAUUAUGGG [Obrany] | – | – | – | 69.4 nM | 146 nM | – | – | 80.9 nM
UUUACAUGAGGAUCACCCAUGUGCCAUGAUACCAGACAUGAAAAUGUCCCUUGGCAGCAUGAGUGAUUCAUCCGAAAGGAUGUUU [Jehnice] | – | – | – | 114 nM | 146 nM | – | – | 103 nM
UUUACAUGAGGAUCACCCAUGUUCCAUGAUACCAGACAUGAAAAUGUCCCUUGGCAGCAUGAAUGAUUCAUAGGAUAAUUAUGGG [Medlanky] | – | – | – | 79.7 nM | 116 nM | – | – | 72.6 nM
UUUGAUUAGAGAAGGAGCGUGAUAUUUAUAUAGUGUGUAUGUACAUGAGGAUCACCCAUGUCACAGGUAGGUCGCUCUGAUAAGG [JR_Nu_ExcArginiB_Sub030] | – | – | – | 14.8 nM | 21.6 nM | 13.2 nM | 13.2 nM | 16.1 nM
UUUUAAGGGAUCGGAGCUGGUAGCAGAGAUACCAGAGUAGUAAUGCUCCCUUGGCAGCUCAGUACAUGAGGAUCACCCAUGUUUU [Exclusion Theophylline A GF26] | – | – | – | 16.3 nM | 21 nM | 25.3 nM | 17.6 nM | 17.9 nM
